Numbered stars: 1 amine (or outer) side, 2 acyl side, 3 side chain; on linkers, the order of the positions; unused ones are H or OH. Bridge positions count the residues as written; N and C are the ends. Side chains are listed from the residue outwards. Ends that are not written are not given here. * marks the point of attachment. C20 diacid = O=C(O)CCCCCCCCCCCCCCCCCCC(=O)*; γGlu = O=C(O)[C@H](CCC(=O)[*:2])N[*:1]; AEEA = NCCOCCOCC(=O)O
B1: N^ε1-[2-[2-[2-[[(4S)-4-carboxy-4-(19-carboxynonadecanoylamino)butanoyl]amino]ethoxy]ethoxy]acetyl]-[Arg17,Pro21,Pro27,Arg34]-h-amylin (peptide)
peptide: K([AEEA-γGlu-C20 diacid])CNTATCATQRLANFLRHSSPNFGAIPSSTNVGRNTY-NH2
modifications: disulfide 2-7; N-terminus assumed
SMILES: CC[C@H](C)[C@H](NC(=O)[C@H](C)NC(=O)CNC(=O)[C@H](Cc1ccccc1)NC(=O)[C@H](CC(N)=O)NC(=O)[C@@H]1CCCN1C(=O)[C@H](CO)NC(=O)[C@H](CO)NC(=O)[C@H](Cc1c[nH]cn1)NC(=O)[C@H](CCCNC(=N)N)NC(=O)[C@H](CC(C)C)NC(=O)[C@H](Cc1ccccc1)NC(=O)[C@H](CC(N)=O)NC(=O)[C@H](C)NC(=O)[C@H](CC(C)C)NC(=O)[C@H](CCCNC(=N)N)NC(=O)[C@H](CCC(N)=O)NC(=O)[C@@H](NC(=O)[C@H](C)NC(=O)[C@@H]1CSSC[C@H](NC(=O)[C@@H](N)CCCCNC(=O)COCCOCCNC(=O)CC[C@H](NC(=O)CCCCCCCCCCCCCCCCCCC(=O)O)C(=O)O)C(=O)N[C@@H](CC(N)=O)C(=O)N[C@@H]([C@@H](C)O)C(=O)N[C@@H](C)C(=O)N[C@@H]([C@@H](C)O)C(=O)N1)[C@@H](C)O)C(=O)N1CCC[C@H]1C(=O)N[C@@H](CO)C(=O)N[C@@H](CO)C(=O)N[C@H](C(=O)N[C@@H](CC(N)=O)C(=O)N[C@H](C(=O)NCC(=O)N[C@@H](CCCNC(=N)N)C(=O)N[C@@H](CC(N)=O)C(=O)N[C@H](C(=O)N[C@@H](Cc1ccc(O)cc1)C(N)=O)[C@@H](C)O)C(C)C)[C@@H](C)O
notes: also called 78; compound 78
B2: N^ε1-[2-[2-[2-[[(4S)-4-carboxy-4-(19-carboxynonadecanoylamino)butanoyl]amino]ethoxy]ethoxy]acetyl]-[Arg17,Pro21,Pro27,Arg35]-h-amylin (peptide)
peptide: K([AEEA-γGlu-C20 diacid])CNTATCATQRLANFLRHSSPNFGAIPSSTNVGSRTY-NH2
modifications: disulfide 2-7; N-terminus assumed
SMILES: CC[C@H](C)[C@H](NC(=O)[C@H](C)NC(=O)CNC(=O)[C@H](Cc1ccccc1)NC(=O)[C@H](CC(N)=O)NC(=O)[C@@H]1CCCN1C(=O)[C@H](CO)NC(=O)[C@H](CO)NC(=O)[C@H](Cc1c[nH]cn1)NC(=O)[C@H](CCCNC(=N)N)NC(=O)[C@H](CC(C)C)NC(=O)[C@H](Cc1ccccc1)NC(=O)[C@H](CC(N)=O)NC(=O)[C@H](C)NC(=O)[C@H](CC(C)C)NC(=O)[C@H](CCCNC(=N)N)NC(=O)[C@H](CCC(N)=O)NC(=O)[C@@H](NC(=O)[C@H](C)NC(=O)[C@@H]1CSSC[C@H](NC(=O)[C@@H](N)CCCCNC(=O)COCCOCCNC(=O)CC[C@H](NC(=O)CCCCCCCCCCCCCCCCCCC(=O)O)C(=O)O)C(=O)N[C@@H](CC(N)=O)C(=O)N[C@@H]([C@@H](C)O)C(=O)N[C@@H](C)C(=O)N[C@@H]([C@@H](C)O)C(=O)N1)[C@@H](C)O)C(=O)N1CCC[C@H]1C(=O)N[C@@H](CO)C(=O)N[C@@H](CO)C(=O)N[C@H](C(=O)N[C@@H](CC(N)=O)C(=O)N[C@H](C(=O)NCC(=O)N[C@@H](CO)C(=O)N[C@@H](CCCNC(=N)N)C(=O)N[C@H](C(=O)N[C@@H](Cc1ccc(O)cc1)C(N)=O)[C@@H](C)O)C(C)C)[C@@H](C)O
notes: also called 38; compound 38
B3: N^ε1-[2-[2-[2-[[(4S)-4-carboxy-4-(19-carboxynonadecanoylamino)butanoyl]amino]ethoxy]ethoxy]acetyl]-[Arg17,Pro21,Pro27,Glu35]-h-amylin (peptide)
peptide: K([AEEA-γGlu-C20 diacid])CNTATCATQRLANFLRHSSPNFGAIPSSTNVGSETY-NH2
modifications: disulfide 2-7; N-terminus assumed
SMILES: CC[C@H](C)[C@H](NC(=O)[C@H](C)NC(=O)CNC(=O)[C@H](Cc1ccccc1)NC(=O)[C@H](CC(N)=O)NC(=O)[C@@H]1CCCN1C(=O)[C@H](CO)NC(=O)[C@H](CO)NC(=O)[C@H](Cc1c[nH]cn1)NC(=O)[C@H](CCCNC(=N)N)NC(=O)[C@H](CC(C)C)NC(=O)[C@H](Cc1ccccc1)NC(=O)[C@H](CC(N)=O)NC(=O)[C@H](C)NC(=O)[C@H](CC(C)C)NC(=O)[C@H](CCCNC(=N)N)NC(=O)[C@H](CCC(N)=O)NC(=O)[C@@H](NC(=O)[C@H](C)NC(=O)[C@@H]1CSSC[C@H](NC(=O)[C@@H](N)CCCCNC(=O)COCCOCCNC(=O)CC[C@H](NC(=O)CCCCCCCCCCCCCCCCCCC(=O)O)C(=O)O)C(=O)N[C@@H](CC(N)=O)C(=O)N[C@@H]([C@@H](C)O)C(=O)N[C@@H](C)C(=O)N[C@@H]([C@@H](C)O)C(=O)N1)[C@@H](C)O)C(=O)N1CCC[C@H]1C(=O)N[C@@H](CO)C(=O)N[C@@H](CO)C(=O)N[C@H](C(=O)N[C@@H](CC(N)=O)C(=O)N[C@H](C(=O)NCC(=O)N[C@@H](CO)C(=O)N[C@@H](CCC(=O)O)C(=O)N[C@H](C(=O)N[C@@H](Cc1ccc(O)cc1)C(N)=O)[C@@H](C)O)C(C)C)[C@@H](C)O
notes: also called 26; compound 26
B4: N^ε1-[2-[2-[2-[[(4S)-4-carboxy-4-(19-carboxynonadecanoylamino)butanoyl]amino]ethoxy]ethoxy]acetyl]-[Arg17,Pro21,Pro27,His34]-h-amylin (peptide)
peptide: K([AEEA-γGlu-C20 diacid])CNTATCATQRLANFLRHSSPNFGAIPSSTNVGHNTY-NH2
modifications: disulfide 2-7; N-terminus assumed
SMILES: CC[C@H](C)[C@H](NC(=O)[C@H](C)NC(=O)CNC(=O)[C@H](Cc1ccccc1)NC(=O)[C@H](CC(N)=O)NC(=O)[C@@H]1CCCN1C(=O)[C@H](CO)NC(=O)[C@H](CO)NC(=O)[C@H](Cc1c[nH]cn1)NC(=O)[C@H](CCCNC(=N)N)NC(=O)[C@H](CC(C)C)NC(=O)[C@H](Cc1ccccc1)NC(=O)[C@H](CC(N)=O)NC(=O)[C@H](C)NC(=O)[C@H](CC(C)C)NC(=O)[C@H](CCCNC(=N)N)NC(=O)[C@H](CCC(N)=O)NC(=O)[C@@H](NC(=O)[C@H](C)NC(=O)[C@@H]1CSSC[C@H](NC(=O)[C@@H](N)CCCCNC(=O)COCCOCCNC(=O)CC[C@H](NC(=O)CCCCCCCCCCCCCCCCCCC(=O)O)C(=O)O)C(=O)N[C@@H](CC(N)=O)C(=O)N[C@@H]([C@@H](C)O)C(=O)N[C@@H](C)C(=O)N[C@@H]([C@@H](C)O)C(=O)N1)[C@@H](C)O)C(=O)N1CCC[C@H]1C(=O)N[C@@H](CO)C(=O)N[C@@H](CO)C(=O)N[C@H](C(=O)N[C@@H](CC(N)=O)C(=O)N[C@H](C(=O)NCC(=O)N[C@@H](Cc1c[nH]cn1)C(=O)N[C@@H](CC(N)=O)C(=O)N[C@H](C(=O)N[C@@H](Cc1ccc(O)cc1)C(N)=O)[C@@H](C)O)C(C)C)[C@@H](C)O
notes: also called 76; compound 76
B5: N^ε1-[2-[2-[2-[[(4S)-4-carboxy-4-(19-carboxynonadecanoylamino)butanoyl]amino]ethoxy]ethoxy]acetyl]-[Arg17,Pro21,Pro27,Pro28,Pro34]-h-amylin (peptide)
peptide: K([AEEA-γGlu-C20 diacid])CNTATCATQRLANFLRHSSPNFGAIPPSTNVGPNTY-NH2
modifications: disulfide 2-7; N-terminus assumed
SMILES: CC[C@H](C)[C@H](NC(=O)[C@H](C)NC(=O)CNC(=O)[C@H](Cc1ccccc1)NC(=O)[C@H](CC(N)=O)NC(=O)[C@@H]1CCCN1C(=O)[C@H](CO)NC(=O)[C@H](CO)NC(=O)[C@H](Cc1c[nH]cn1)NC(=O)[C@H](CCCNC(=N)N)NC(=O)[C@H](CC(C)C)NC(=O)[C@H](Cc1ccccc1)NC(=O)[C@H](CC(N)=O)NC(=O)[C@H](C)NC(=O)[C@H](CC(C)C)NC(=O)[C@H](CCCNC(=N)N)NC(=O)[C@H](CCC(N)=O)NC(=O)[C@@H](NC(=O)[C@H](C)NC(=O)[C@@H]1CSSC[C@H](NC(=O)[C@@H](N)CCCCNC(=O)COCCOCCNC(=O)CC[C@H](NC(=O)CCCCCCCCCCCCCCCCCCC(=O)O)C(=O)O)C(=O)N[C@@H](CC(N)=O)C(=O)N[C@@H]([C@@H](C)O)C(=O)N[C@@H](C)C(=O)N[C@@H]([C@@H](C)O)C(=O)N1)[C@@H](C)O)C(=O)N1CCC[C@H]1C(=O)N1CCC[C@H]1C(=O)N[C@@H](CO)C(=O)N[C@H](C(=O)N[C@@H](CC(N)=O)C(=O)N[C@H](C(=O)NCC(=O)N1CCC[C@H]1C(=O)N[C@@H](CC(N)=O)C(=O)N[C@H](C(=O)N[C@@H](Cc1ccc(O)cc1)C(N)=O)[C@@H](C)O)C(C)C)[C@@H](C)O
notes: also called 55; compound 55
B6: N^ε1-[2-[2-[2-[[(4S)-4-carboxy-4-(19-carboxynonadecanoylamino)butanoyl]amino]ethoxy]ethoxy]acetyl]-[Arg17,Pro21,Pro27,Pro29,Pro31]-h-amylin (peptide)
peptide: K([AEEA-γGlu-C20 diacid])CNTATCATQRLANFLRHSSPNFGAIPSPTPVGSNTY-NH2
modifications: disulfide 2-7; N-terminus assumed
SMILES: CC[C@H](C)[C@H](NC(=O)[C@H](C)NC(=O)CNC(=O)[C@H](Cc1ccccc1)NC(=O)[C@H](CC(N)=O)NC(=O)[C@@H]1CCCN1C(=O)[C@H](CO)NC(=O)[C@H](CO)NC(=O)[C@H](Cc1c[nH]cn1)NC(=O)[C@H](CCCNC(=N)N)NC(=O)[C@H](CC(C)C)NC(=O)[C@H](Cc1ccccc1)NC(=O)[C@H](CC(N)=O)NC(=O)[C@H](C)NC(=O)[C@H](CC(C)C)NC(=O)[C@H](CCCNC(=N)N)NC(=O)[C@H](CCC(N)=O)NC(=O)[C@@H](NC(=O)[C@H](C)NC(=O)[C@@H]1CSSC[C@H](NC(=O)[C@@H](N)CCCCNC(=O)COCCOCCNC(=O)CC[C@H](NC(=O)CCCCCCCCCCCCCCCCCCC(=O)O)C(=O)O)C(=O)N[C@@H](CC(N)=O)C(=O)N[C@@H]([C@@H](C)O)C(=O)N[C@@H](C)C(=O)N[C@@H]([C@@H](C)O)C(=O)N1)[C@@H](C)O)C(=O)N1CCC[C@H]1C(=O)N[C@@H](CO)C(=O)N1CCC[C@H]1C(=O)N[C@H](C(=O)N1CCC[C@H]1C(=O)N[C@H](C(=O)NCC(=O)N[C@@H](CO)C(=O)N[C@@H](CC(N)=O)C(=O)N[C@H](C(=O)N[C@@H](Cc1ccc(O)cc1)C(N)=O)[C@@H](C)O)C(C)C)[C@@H](C)O
notes: also called 54; compound 54

These binders were tested against T1, human amylin receptor (amylin 3(a) receptor: human calcitonin receptor with RAMP-3) (human, UniProt P30988 25-474; O60896 24-148) (assay: SPA displacement of 125I-rat amylin, hAmylin 3(a) receptor membranes).
T1 construct: whole, on cells; also called hAmylin-R; hAmylinR
T1 sequence (looked up) 1: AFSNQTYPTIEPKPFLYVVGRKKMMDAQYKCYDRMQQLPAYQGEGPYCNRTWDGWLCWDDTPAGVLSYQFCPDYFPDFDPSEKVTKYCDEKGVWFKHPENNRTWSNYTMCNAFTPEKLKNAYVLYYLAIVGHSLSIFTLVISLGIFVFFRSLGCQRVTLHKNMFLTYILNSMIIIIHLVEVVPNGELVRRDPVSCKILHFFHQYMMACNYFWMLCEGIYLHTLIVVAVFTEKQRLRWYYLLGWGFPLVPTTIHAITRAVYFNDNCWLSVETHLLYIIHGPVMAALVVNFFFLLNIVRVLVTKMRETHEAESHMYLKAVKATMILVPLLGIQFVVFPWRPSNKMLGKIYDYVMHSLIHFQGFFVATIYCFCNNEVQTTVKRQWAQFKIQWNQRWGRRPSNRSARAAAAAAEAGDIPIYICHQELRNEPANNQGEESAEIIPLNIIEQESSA
T1 sequence (looked up) 2: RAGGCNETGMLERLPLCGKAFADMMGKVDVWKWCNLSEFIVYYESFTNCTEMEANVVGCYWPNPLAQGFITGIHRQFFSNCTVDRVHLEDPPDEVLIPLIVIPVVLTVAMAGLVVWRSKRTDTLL
Outline: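 One-site competition analysis of SPA counts yielded IC₅₀ as a measure of affinity. Membranes were at 35 ng/μL final; incubation was 120 min at 25° C, pH 7.4.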
B1 gave an IC50 of 0.602 nM.
B2 was tested, and the IC50 was 0.249 nM.
Work on B3 yielded an IC50 of 0.532 nM.
B4 was tested, and the IC50 was 0.215 nM.
K([AEEA-γGlu-C20 diacid])CNTATCATQRLANFLRHSSPNFGAIPPSTPVGSNTY-NH2 (disulfide 2-7, also called 53; compound 53) showed an IC50 of 0.052 nM.
With B5 the IC50 was 0.042 nM.
In the case of B6, the IC50 is reported as 0.03 nM.

— patent US20140087995A1 (published 2014)
